The series in a line: Rheological properties at adjusted salt ionic strength. Format: physicochemical. The note with it: for ionic strength adjustment up to which the rheological property of the solution increases (decreases above): 1% solutions, storage modulus at 1 rad/sec. The protocol:
Based on the visual observation of the effect of salt ionic strength on the properties of the peptide solutions, the effect on the rheological properties of the peptide solutions after adjusting their ionic strength level with NaCl to 0.7 M (PuraMatrix®), 0.2 M (KLD12) or 0.02 M (IEIK13), which is closely below the critical ionic strength at which each peptide becomes cloudy, was evaluated. If the ionic strength levels with NaCl of peptide solutions are higher than 0.9 M (PuraMatrix®), 0.3 M (KLD12) or 0.03 M (IEIK13), the peptide solution begin phase separation becoming cloudy and weak. The rheological property of PuraMatrix®, KLD12 and IEIK13 solutions was higher after adjusting their ionic strength level with NaCl to 0.7 M (PuraMatrix®), 0.2 M (KLD12) or 0.02 M (IEIK13), The results are shown in FIG. 10 for KLD12 1%, FIG. 11 for IEIK13 1%, and FIG. 12 for PuraMatrix® 1%, respectively. Frequency sweep tests were performed from 1 rad/s to 10 rad/s at 1 Pa.
Based on the results of the effect on the rheological properties of the peptide solutions after adjusting their ionic strength level with NaCl to 0.7 M (PuraMatrix®), 0.2 M (KLD12) or 0.02 M (IEIK13), the effect on the rheological properties of the peptide solution at various salt ionic strengths was evaluated. […] The results are shown in FIG. 13 for PuraMatrix® 1% solution and in FIG. 14 for IEIK13 1% solution. Frequency sweep tests were performed from 1 rad/sec to 10 rad/sec at 1 Pa and the storage modulus at 1 rad/sec was selected for data.
Based on the results of the effect on the rheological properties of the peptide solutions after adjusting their ionic strength levels, the effect on the rheological properties of the peptide hydrogels after DMEM treatment for 10 min was evaluated. […] The results are shown in FIG. 15 for PuraMatrix® 1% hydrogels and in FIG. 16 for IEIK13 1% hydrogels, both after DMEM treatment for 10 min. Frequency sweep tests were performed from 1 rad/sec to 10 rad/sec at 1 Pa and the storage modulus at 1 rad/sec was selected for data.
Based on the results of the effect on the rheological properties of the peptide solutions and hydrogels after adjusting their ionic strength levels with NaCl, the effect of various salts (KCl, MgCl2, and CaCl2) was also evaluated. The rheological property of PuraMatrix® solutions increases with ionic strength adjustment at 0.15 M of all the salts. Increases of the rheological property of PuraMatrix® solutions with various salts were not predominantly different. However, increases of the rheological property of PuraMatrix® solutions may vary depending on the salting out constant, K of each salt. Constant K is a constant in Cohen's equation: log S=B−KI, where S is solubility, B is idealized solubility, K is salting out constant, and I is ionic strength. With a higher value of constant K and ionic strength of salts, solubility of the peptide may decrease resulting in strong peptide self-assembly with increased hydrophobic effect and higher rheological properties of the peptide solution. The constant K of NaCl may be higher than the other salts. […] The results are shown in FIG. 17 for PuraMatrix® 1% solution before DMEM treatment, and in FIG. 18 for PuraMatrix® 1% hydrogels after DMEM treatment for 10 min.
In accordance with one or more embodiments, IEIK13, KLD12, and PuraMatrix® may be dissolved both in salt buffer such as NaCl and at an elevated pH level adjusted with alkali salt buffer such as NaOH to keep their salt ionic strength under their critical salt points as well as their pH level to about 2.5˜4.0, so that they may have stiffer properties. With respect to PuraMatrix®, […] and IEIK13, the peptide solutions are still clear with 0.9% NaCl (ionic strength: 0.15 M) at pH 3.4 adjusted with NaOH. […] The effect of salt ionic strength and pH adjustment on the rheological properties of PuraMatrix® 2.5% solution are shown in FIG. 20. […]

[1] abbreviates: 1% hydrogels after DMEM treatment for 10 min.

Where no end group is shown, it is not given here.

“Arg-Ala-Asp-Ala-Arg-Ala-Asp-Ala-Arg-Ala-Asp-Ala-Arg-Ala-Asp-Ala [PuraMatrix®]”: the “ionic strength adjustment up to which the rheological property of the solution increases (decreases above)” value is “up to 0.7 M”; the “ionic strength level with NaCl above which the solution begins phase separation becoming cloudy and weak” value (from here on “ionic strength level”) is listed as “higher than 0.9 M”. Besides, the “ionic strength adjustment up to which the rheological property of hydrogels increased (decreases above)” value under setting [1] is listed as “up to 0.7 M”. Also, the “rheological property of hydrogels with ionic strength adjustment with various salts” value (1% hydrogels after DMEM treatment for 10 min, 0.15 M ionic strength) is reported as “comparable to increases of the rheological property of PuraMatrix® solutions with various salts”. Moreover, the “rheological property of solutions with NaCl compared with other salts” value (1% solution, 0.15 M ionic strength) was “slightly higher than those with KCl and CaCl2”. In addition, for the setting “1% solution, 0.15 M ionic strength of all the salts (NaCl, KCl, MgCl2, CaCl2)”, the “rheological property of solutions with ionic strength adjustment” value was “increases”. Besides, the rheological property result (2.5% solution with 0.9% NaCl (ionic strength: 0.15 M) at pH 3.4) is “stiffer than those of PuraMatrix control and PuraMatrix with only NaCl 0.9%”.

With “Ile-Glu-Ile-Lys-Ile-Glu-Ile-Lys-Ile-Glu-Ile-Lys-Ile [IEIK13]”, the “ionic strength adjustment up to which the rheological property of the solution increases (decreases above)” value is “up to 0.03 M”; the “ionic strength level” value is more than 0.03 M. Further, under setting [1], the “rheological property of hydrogels with ionic strength adjustment” value is reported as “did not significantly change with ionic strength adjustment up to 0.025 M, while decreases above 0.03 M”.

In the case of KLDLKLDLKLDL [KLD12], the “ionic strength level” value is recorded as more than 0.3 M.
